Experimental data as given in US9012166B2, “Method for assaying histone methylation enzyme activity” (Kyushu Institute of Technology, priority 2010, dated 2015).
*: point of attachment. AMC = Cc1cc(=O)oc2cc(N*)ccc12

Target: T1, G9a (GST-mG9a) (Mus musculus, UniProt Q9Z148)
T1 sequence (Q9Z148 1-1263): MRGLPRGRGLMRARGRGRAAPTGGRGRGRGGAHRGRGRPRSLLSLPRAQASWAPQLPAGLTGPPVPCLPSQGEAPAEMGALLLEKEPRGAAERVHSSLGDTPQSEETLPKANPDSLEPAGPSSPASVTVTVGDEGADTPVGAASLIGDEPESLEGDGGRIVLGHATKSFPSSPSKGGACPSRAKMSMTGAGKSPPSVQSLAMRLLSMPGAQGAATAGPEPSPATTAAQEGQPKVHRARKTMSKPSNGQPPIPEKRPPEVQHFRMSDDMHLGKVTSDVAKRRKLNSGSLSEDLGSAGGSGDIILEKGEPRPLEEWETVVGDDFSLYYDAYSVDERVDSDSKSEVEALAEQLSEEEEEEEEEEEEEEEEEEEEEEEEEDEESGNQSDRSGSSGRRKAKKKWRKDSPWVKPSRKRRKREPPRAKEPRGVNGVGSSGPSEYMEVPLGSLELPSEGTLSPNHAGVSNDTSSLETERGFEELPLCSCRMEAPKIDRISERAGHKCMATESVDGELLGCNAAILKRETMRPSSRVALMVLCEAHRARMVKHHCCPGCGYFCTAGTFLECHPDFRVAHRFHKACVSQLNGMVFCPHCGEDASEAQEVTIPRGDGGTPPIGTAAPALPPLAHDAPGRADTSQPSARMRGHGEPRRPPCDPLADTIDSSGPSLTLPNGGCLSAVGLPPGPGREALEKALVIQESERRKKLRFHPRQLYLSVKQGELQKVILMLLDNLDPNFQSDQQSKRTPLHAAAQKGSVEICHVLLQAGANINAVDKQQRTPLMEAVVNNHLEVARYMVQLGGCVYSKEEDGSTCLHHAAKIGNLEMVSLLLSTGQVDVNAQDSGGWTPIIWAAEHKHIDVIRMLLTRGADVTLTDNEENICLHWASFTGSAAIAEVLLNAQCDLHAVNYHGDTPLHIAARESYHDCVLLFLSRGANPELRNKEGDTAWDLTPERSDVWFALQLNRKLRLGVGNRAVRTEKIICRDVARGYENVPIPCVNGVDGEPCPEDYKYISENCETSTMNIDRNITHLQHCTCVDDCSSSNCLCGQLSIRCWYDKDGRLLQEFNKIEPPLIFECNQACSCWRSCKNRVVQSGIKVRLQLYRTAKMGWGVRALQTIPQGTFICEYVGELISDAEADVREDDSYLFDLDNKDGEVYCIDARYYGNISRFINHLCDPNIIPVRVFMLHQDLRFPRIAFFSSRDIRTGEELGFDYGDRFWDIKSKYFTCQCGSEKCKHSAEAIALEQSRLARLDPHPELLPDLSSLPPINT
Test: Substrate specificity / methylation of substrate compounds by G9a
Assay type: biochemical
Conditions: for methylation of peptidyl MCA by G9a: Example 6, GST-mG9a 0-0.15 μg/μL, left panel of FIG. 14; for methylation of peptidyl MCA by GST-mG9a: Example 13, AMC and peptidyl MCA fluorescence, FIGS. 25 and 26
Method: Distilled water was added to 10 μL of 2×HMT buffer (100 mM Tris-HCl (pH 8.5), 20 mM MgCl2, 40 mM KCl, 20 mM 2-mercaptoethanol, 500 mM sucrose), 2 μL of a BSA solution (30 μg/mL), and a predetermined concentration (final concentration: 0, 0.015, 0.05, or 0.15 μg/μL) of a histone methyltransferase (G9a) solution to adjust the total volume to 16 μL. Thereafter, the resultant solution was incubated at room temperature for 1 hour. Then, 2 μL of S-adenosylmethionine (SAM) (10 mM) and 2 μL of BocLysMCA (final concentration: 0.009 mM, 0.03 mM, or 0.09 mM) were added thereto, which was mixed and then incubated at 37° C. for 1 hour. Subsequently, 30 μL of a trypsin solution (20 mg/mL) was added thereto, followed by incubation at 37° C. for 15 minutes. The fluorescence intensity of the solution was measured at an excitation wavelength (λex) of 390 nm and a fluorescence wavelength (λem) of 460 nm.
When G9a was adopted as a histone methyltransferase, the following method was used. 10 μL of 2×HMT buffer (100 mM Tris-HCl (pH 8.5), 20 mM MgCl2, 40 mM KCl, 20 mM 2-mercaptoethanol, 500 mM sucrose), 0.4 μL of a BSA solution (150 μg/mL), 4.5 μL of GST-mG9a (0, 0.022 to 0.66 μg/μL), and 1.1 μL of distilled water were mixed and then incubated at room temperature for 1 hour. Then, 2 μL of SAM (10 mM) and 2 μL of a peptidyl MCA solution (0.6 mM) were added thereto, which was then incubated at 37° C. for 1 hour. Thereafter, 30 μL of a trypsin solution (20 mg/mL) was added thereto, followed by incubation at 37° C. for 15 minutes. Then, the fluorescence intensity of the solution was measured at an excitation wavelength (λex) of 390 nm and a fluorescence wavelength (λem) of 460 nm. The final concentration of GST-mG9a during the measurement of fluorescence intensity was 0, 0.005, 0.015, 0.05, or 0.15 μg/μL. The results of the assay for measuring histone methyltransferase activity are shown in the left panel of FIG. 14.
When G9a was adopted as a histone methyltransferase, the following method was used. 10 μL of 2×HMT buffer (100 mM Tris-HCl (pH 8.5), 20 mM MgCl2, 40 mM KCl, 20 mM 2-mercaptoethanol, 500 mM sucrose), 0.4 μL of a BSA solution (150 μg/mL), 3.6 μL of GST-mG9a (0, 0.028, 0.083, 0.28, 0.83 μg/μL), and 4 μL of distilled water were mixed and then incubated at room temperature for 1 hour. Then, 1 μL of SAM (20 mM) and 1 μL of a peptidyl MCA solution (1.2 mM) were added thereto, which was then incubated at 37° C. for 1 hour. Thereafter, 30 μL of a trypsin solution (20 mg/mL) was added thereto, followed by incubation at 37° C. for 15 minutes. Then, the fluorescence intensity of the solution was measured at an excitation wavelength (λex) of 390 nm and a fluorescence wavelength (λem) of 460 nm. The final concentration of GST-mG9a during the measurement of fluorescence intensity was 0, 0.005, 0.015, 0.05, or 0.15 μg/μL. The results of the assay for measuring histone methyltransferase activity are shown in the left panel of FIG. 16.
When G9a was adopted as a histone methyltransferase, the following method was used. 10 μL of 2×HMT buffer (100 mM Tris-HCl (pH 8.5), 20 mM MgCl2, 40 mM KCl, 20 mM 2-mercaptoethanol, 500 mM sucrose), 0.4 μL of a BSA solution (150 μg/mL), 4 μL of GST-mG9a (0, 0.025 to 0.75 μg/μL), and 3.6 μL of distilled water were mixed and then incubated at room temperature for 1 hour. Then, 1 μL of SAM (final concentration: 1 mM) and 1 μL, of a peptidyl MCA solution (1.2 mM) were added thereto, which was then incubated at 37° C. for 1 hour. Thereafter, 30 μL of a trypsin solution (20 mg/mL) was added thereto, followed by incubation at 37° C. for 15 minutes. Then, the fluorescence intensity of the solution was measured at an excitation wavelength (λex) of 330 nm and a fluorescence wavelength (λem) of 380 nm or at an excitation wavelength (λex) of 390 nm and a fluorescence wavelength (λem) of 460 nm. The final concentration of GST-mG9a during the measurement of fluorescence intensity was 0, 0.005, 0.015, 0.05, or 0.15 μg/μL.

## Ac-ARTK-MCA (Ac-ARTK-{AMC}; SMILES CC(=O)N[C@@H](C)C(=O)N[C@@H](CCCNC(=N)N)C(=O)N[C@H](C(=O)N[C@@H](CCCCN)C(=O)Nc1ccc2c(C)cc(=O)oc2c1)[C@@H](C)O; listed as Homo sapiens) [Ac-histone H3 (1-4)-MCA]
  methylation of peptidyl MCA by G9a: little methylation occurred

## Ac-KRSK-MCA (Ac-KRSK-{AMC}; SMILES CC(=O)N[C@@H](CCCCN)C(=O)N[C@@H](CCCNC(=N)N)C(=O)N[C@@H](CO)C(=O)N[C@@H](CCCCN)C(=O)Nc1ccc2c(C)cc(=O)oc2c1; listed as Homo sapiens) [Ac-ERα (299-302)-MCA]
  methylation of peptidyl MCA by GST-mG9a: does not methylate

## Ac-ARTKQTARK-MCA [Ac-histone H3 (1-9)-MCA]
  methylation of peptidyl MCA by G9a: methylation often occurred
  methylation of peptidyl MCA by GST-mG9a: methylates

## Ac-ARK-MCA (Ac-Ala-Arg-Lys-{AMC}; SMILES CC(=O)N[C@@H](C)C(=O)N[C@@H](CCCNC(=N)N)C(=O)N[C@@H](CCCCN)C(=O)Nc1ccc2c(C)cc(=O)oc2c1; listed as Homo sapiens) [Ac-histone H3 (7-9/25-27)-MCA, acetyl-ARK (human histone H3 7-9 or 25-27)-MCA substrate]
  methylation of peptidyl MCA by G9a: methylation often occurred

## Ac-QTARK-MCA [Ac-histone H3 (5-9)-MCA]
  methylation of peptidyl MCA by G9a: methylation often occurred

## Cc1cc(=O)oc2cc(NC(=O)C(CCCCN)NC(=O)OC(C)(C)C)ccc12 (stereo not shown) [BocLysMCA, Boc-K-MCA]
Example 4, BocLysMCA 0.009 mM to 0.09 mM, G9a 0-0.15 μg/μL, FIG. 9
  fluorescence intensity of AMC after G9a reaction and trypsin: decreased in a manner dependent on the concentration of the histone methyltransferase G9a

## Ac-KAARK-MCA (Ac-KAARK-{AMC}; SMILES CC(=O)N[C@@H](CCCCN)C(=O)N[C@@H](C)C(=O)N[C@@H](C)C(=O)N[C@@H](CCCNC(=N)N)C(=O)N[C@@H](CCCCN)C(=O)Nc1ccc2c(C)cc(=O)oc2c1; listed as Homo sapiens) [Ac-histone H3 (23-27)-MCA]
  methylation of peptidyl MCA by G9a: methylation often occurred

## Ac-LKSK-MCA (Ac-LKSK-{AMC}; SMILES CC(=O)N[C@@H](CC(C)C)C(=O)N[C@@H](CCCCN)C(=O)N[C@@H](CO)C(=O)N[C@@H](CCCCN)C(=O)Nc1ccc2c(C)cc(=O)oc2c1; listed as Homo sapiens) [Ac-p53 (369-372)-MCA]
  methylation of peptidyl MCA by G9a: little methylation occurred

## Ac-QLATKAARK-MCA (Ac-QLATKAARK-{AMC}; SMILES CC(=O)N[C@@H](CCC(N)=O)C(=O)N[C@@H](CC(C)C)C(=O)N[C@@H](C)C(=O)N[C@H](C(=O)N[C@@H](CCCCN)C(=O)N[C@@H](C)C(=O)N[C@@H](C)C(=O)N[C@@H](CCCNC(=N)N)C(=O)N[C@@H](CCCCN)C(=O)Nc1ccc2c(C)cc(=O)oc2c1)[C@@H](C)O; listed as Homo sapiens) [Ac-histone H3 (19-27)-MCA]
  methylation of peptidyl MCA by G9a: methylation often occurred
